Here are results for one substance from patent US20090005659A1, “Tissue Ablation by Shear Force for Sampling Biological Fluids and Delivering Active Agents” (priority 2000, published 2009).

For data set [1], the system named is female Yorkshire pigs. As to the kind of experiment: Subcutaneous injection of insulin (control experiment): blood glucose and plasma insulin profiles. Particulars: four pigs. It is filed as in vivo, pig. An excerpt: The subcutaneous administration of insulin provides a dose response to which a comparative measure of transdermally delivered insulin can be made. An insulin dose of 5 IU insulin (Regular Iletin® II, Insulin Injection, USP, Purified Pork, Eli Lilly and Company, Indianapolis, Ind., USA) was subcutaneously injected in the rear mid-ventral area of each of four female Yorkshire pigs (weight: 22-26 kg) with a 1 cc Sub-Q Precision Glide® Needle (Becton-Dickinson and Company, Franklin Lakes, N.J., USA).
As the insulin concentrations went back to its basal concentration (FIG. 5b), the blood glucose concentrations also were gradually returned toward its pre-insulin injection level (FIG. 5a).

Data set [2] relates to intact skin of human and swine. The experiment in a line: Penetration of insulin into intact skin (own experiment, result not shown). It is filed as in vivo. Particulars: no shear perforation. The text has this:
The stratum corneum is recognized as the primary barrier to percutaneous absorption of drug applied to the skin surface. The densely structured outmost skin layer consisting of flattened and keratinized dead skin cells provides a formidable permeation barrier to most small and virtually all large compounds. […] Our own experiment confirmed this (result not shown). This example investigates in vivo transdermal delivery of insulin into swine following application of shear perforation to remove the stratum corneum barrier at the test site.

The test system of the next data set is pigs. As to the kind of experiment: Swine glucose monitoring study: subcutaneous fast-acting insulin, blood glucose. It is filed as in vivo, pig. Conditions: 2 IU subcutaneous, four pigs. As for the experimental part:
A swine study was conducted for glucose measurements in both capillary blood and ISF extracted from the micropores generated by the shear perforation procedure as described in Example 3. Briefly, subcutaneous injections of fast-acting insulin (2 IU, Regular Iletin® II, U-100, Pork, Eli Lilly, Indianapolis, Ind.) were administered to four pigs. […] Glucose changes in the blood were monitored periodically using One Touch® Basic glucose meter (LifeScan, Inc., Milpitas, Calif.) on blood samples from the ear vein. ISF samples were obtained by application of a weak suction to the micropores on the skin with an Asoivenin® suction device (ASPIR, Sannois, France). The ISF samples collected throughout the whole experiment were tested for glucose using both a FastTake® and One Touch® Basic glucose meter blood glucose meters (LifeScan, Inc., Milpitas, Calif.) as wells as an YSI glucose analyzer (Model 2700 Select Biochemistry Analyzer, YSI Inc., Yellow Springs, Ohio). A calibration procedure was conducted for the two home-use glucose meters (i.e., the One Touch® and FastTake® meters) against the YSI glucose analyzer using aqueous glucose solutions of various concentrations.

Data set [3] concerns female Yorkshire pigs. The experiment in a line: Transdermal delivery of insulin by passive diffusion following shear perforation of the skin. It is filed as in vivo, pig. As for the experimental part:
Two female Yorkshire pigs of the same body weight range as those in Example 2 were immobilized with anesthetics. The test site on the side of the chest was prepared by clipping lightly off the hair and cleaning with an alcohol wipe. Special care was taken not to damage the skin. Shear perforation of the pig skin was performed with a Remington shaver (Remington Microscreen 1®, Remington, Bridgeport, Conn., USA) by pressing its screen firmly on the skin for about 1 second. This procedure was repeated at an adjacent skin site until 10 cm^2 of the skin was shear-perforated. Only slight erythema was observed on the test site. A drug reservoir patch made of silicone rubber (Silastic® Sheet, Medical Grade, Dow Corning Corp., Midland, Mich., USA) was affixed to the test skin with silicone adhesive (Secure® Adhesive, BT-401, Factor II, Inc., Lakeside, Ariz., USA). […] The thickness of the drug reservoir was 0.5 mm. An insulin solution (0.5 ml, Regular Iletin® II, Insulin Injection, USP, Purified Pork, Eli Lilly and Company, Indianapolis, Ind., USA) was placed into the drug reservoir which covered the shear-perforated skin to allow insulin molecules to enter the pig body through the pores on the stratum corneum driven by insulin concentration gradient. Transdermal insulin delivery was conducted in this way for 50 minutes. Insulin delivery was then terminated by removing the insulin patch. Blood samples were taken from the pigs prior to, during, and after transdermal insulin delivery for determination of blood glucose and insulin concentrations.

Values joined by “and” are separate entries in the source; they are usually repeats but may differ in a detail not shown here. Equal values may be shown once.

Regarding insulin, in the data set with female Yorkshire pigs [1] (5 IU insulin subcutaneous injection, plasma, FIG. 5b), the peak insulin concentrations is listed as 31-55 μIU/ml. Besides, the blood glucose concentration result in the data set on female Yorkshire pigs [1] (5 IU insulin subcutaneous, FIG. 5a) is given as “rapid reduction in blood glucose concentration”; in the data set on pigs it was “significant reduction in the blood glucose concentration”. Besides, the “penetration into intact skin” value in data set [2] is “cannot penetrate into the intact skin”. The blood glucose entry with female Yorkshire pigs [3] (0.5 ml insulin solution patch over 10 cm^2 shear-perforated skin, 50 minutes, two pigs, FIG. 6a) is “Drastic reduction in the blood glucose”. For the same substance, the “time for blood glucose concentrations to return to a near normal level” value in the data set on female Yorkshire pigs [3] (transdermal insulin over shear-perforated skin, 50 minutes delivery, two pigs) is given as “about 5 hours”. Further, the “peak plasma insulin concentrations” value in the data set on female Yorkshire pigs [3] (transdermal, shear-perforated skin 10 cm^2, one value per pig, FIG. 6b) was 50 μIU/ml and 90 μIU/ml. Also, the “time of peak plasma insulin concentration” value with female Yorkshire pigs [3] (transdermal, shear-perforated skin, peak at the end of delivery) came out at 50 min.
